Laboratory results reported in PMC2791212, “N-Terminal Deletion of Peptide:N-Glycanase Results in Enhanced Deglycosylation Activity” (PLoS ONE, 2009).

Experiments:
[1] = target: T1, Peptide:N-glycanase from yeast (Png1p), full length (S. cerevisiae, UniProt Q02890 1-363); assay: SPR; RNase B (40 µg/ml, 10 mM sodium acetate pH 5.31) amine-coupled to a CT405 chip; Png1p or Png1p-ΔH1 as analytes (80-1000 nM), 25°C, 10 mM HEPES pH 7.4, 5 µl/min; 1:1 Langmuir model, global fit; KD = koff/kon; conditions: both partners purified
T1 construct: Png1p (peptide:N-glycanase), S. cerevisiae W303-1a, gene amplified from genomic DNA, amino acids 1-363, cloned into EcoRI and HindIII sites of pET-22b(+); Plasmid pET-22b/png1p; eluted as 'Protein-His6'; The vector may add further residues at the N-terminus (cloning at EcoRI of pET-22b); also called PNGase; wild type Png1p; source: E. coli BL21 (DE3) pLysS, purified (Ni2+-NTA)
T1 sequence (looked up): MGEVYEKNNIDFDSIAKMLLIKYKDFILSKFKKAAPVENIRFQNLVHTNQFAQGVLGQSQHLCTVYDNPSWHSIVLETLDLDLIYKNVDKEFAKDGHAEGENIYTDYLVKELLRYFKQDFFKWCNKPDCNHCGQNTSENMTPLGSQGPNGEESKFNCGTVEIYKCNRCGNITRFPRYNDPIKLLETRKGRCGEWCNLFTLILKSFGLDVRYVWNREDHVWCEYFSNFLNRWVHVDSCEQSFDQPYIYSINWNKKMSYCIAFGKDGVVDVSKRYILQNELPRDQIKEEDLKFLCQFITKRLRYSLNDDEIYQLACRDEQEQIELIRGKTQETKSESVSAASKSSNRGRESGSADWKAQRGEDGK

[2] = target: T2, Png1p-ΔH1 (33-363 aa), N-terminal H1 helix deletion mutant of S. cerevisiae Png1p (S. cerevisiae, UniProt Q02890 33-363); assay: as above; conditions: both partners purified
T2 construct: Png1p (peptide:N-glycanase), S. cerevisiae W303-1a, amino acids 33-363 (lacks the N-terminal H1 helix), cloned into EcoRI and HindIII sites of pET-22b(+); Plasmid pET-22b/png1p-ΔH1; eluted as 'Protein-His6'; also called N-terminal H1 deletion mutant; source: E. coli BL21 (DE3) pLysS, purified (Ni2+-NTA)
T2 sequence (looked up): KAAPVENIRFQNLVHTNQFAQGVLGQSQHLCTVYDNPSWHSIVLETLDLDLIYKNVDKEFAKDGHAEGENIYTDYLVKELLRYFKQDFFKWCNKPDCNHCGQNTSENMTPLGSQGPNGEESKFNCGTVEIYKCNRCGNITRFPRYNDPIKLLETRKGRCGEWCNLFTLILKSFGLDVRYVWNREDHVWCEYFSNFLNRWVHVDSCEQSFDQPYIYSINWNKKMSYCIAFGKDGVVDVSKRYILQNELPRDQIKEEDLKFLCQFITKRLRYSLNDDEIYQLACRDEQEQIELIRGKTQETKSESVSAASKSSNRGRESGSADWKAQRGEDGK

Kd [1]: 7.7 µM
koff [1]: 0.094 s⁻¹
kon [1]: 12200 M⁻¹ s⁻¹
Kd [2]: 2.9 µM
koff [2]: 0.05 s⁻¹
kon [2]: 17000 M⁻¹ s⁻¹
B1: Ribonuclease B (RNase B), denatured (natural protein, UniProt P61823 27-150, looked up)
chain: KETAAAKFERQHMDSSTSAASSSNYCNQMMKSRNLTKDRCKPVNTFVHESLADVQAVCSQKNVACKNGQTNCYQSYSTMSITDCRETGSSKYPNCAYKTTQANKHIIVACEGNPYVPVHFDASV
modifications: N-linked glycan (glycoprotein; position not stated)
notes: Ribonuclease B, the glycosylated form of pancreatic ribonuclease; Denatured by heating at 100°C for 10 min and rapid freezing (deglycosylation methods); also called denatured RNase B
